According to the supplement of paper PMC7877785:
± gives the uncertainty stated by the source.

Test: self-splicing fitness, log relative to wild type (ln ratio); higher = more splicing; Tetrahymena group I intron in knt gene, E. coli kanamycin selection, DiMSum; sequences stand for … in CUCUCU…GGAGGGAAAAGUUAUCAGGCAUGCACCUGGUAGCUAGUCUUUAAACCAAUAGAUUGCAUCGGUUUAAAAGGCAAGACCGUCAAAUUGCGGGAAAGGGGUCAACAGCCGUUCAGUACCAAGUCUCAGGGGAAACUUUGAGAUGGCCUUGCAAAGGGUAUGGUAAUAAGCUGACGGACAUGGUCCUAACCACGCAGCCAAGUCCUAAGUCAACAGAUCUUCUGUUGAUAUGGAUGCAGUUCACAGACUAAAUGUCGGUCGGGGAAGAUGUAUUCUUCUCAUAAGAUAUAGUCGGACCUCUCCUUAAUGGGAGCUAGCGGAUGAAGUGAUGCAACACUGGAGCCGCUGGGAACUAAUUUGUAUGCGAAAGUAUAUUGAUUAGUUUUGGAGUACUCGUGGUCG
Outline: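 Pooled colonies went to amplicon sequencing on an Illumina HiSeq 2500 after six replicate transformations. The plates were LB agar with 100 μg/mL carbenicillin, 50 μM IPTG and 0.2% rhamnose, with or without 25 μg/mL kanamycin, incubated overnight at 37°C or 30°C. The E. coli BL21(DE3) library had all eight P1ex-region intron nucleotides randomised, the intron placed in the knt kanamycin-resistance gene on pET-22b(+). DiMSum fitness is the error-weighted combination of replicate fold changes, kanamycin against none, normalised to wild type.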

Sequence | self-splicing fitness (ln) (30 °C) | self-splicing fitness (ln) (37 °C)
CGUCAGCAAUAUUACGGCAC | -1.8 ± 0.12 | -0.799 ± 0.14
CGUCAGCAAUAUUACGGCCA | -0.937 ± 0.083 | 0.106 ± 0.097
CGUCAGCAAUAUUACGGCCU | -0.913 ± 0.17 | -1.79 ± 0.29
CGUCAGCAAUAUUACGGCGU | -4.74 ± 0.34 | -0.685 ± 0.19
CGUCAGCAAUAUUACGGCUA | -0.938 ± 0.11 | -0.751 ± 0.11
CGUCAGCAAUAUUACGGGAU | -4.7 ± 0.39 | -2.66 ± 0.2
CGUCAGCAAUAUUACGGGCU | -1.31 ± 0.078 | -0.668 ± 0.082
CGUCAGCAAUAUUACGGGGU | -3.29 ± 0.11 | -2.33 ± 0.14
CGUCAGCAAUAUUACGGGUC | -4.23 ± 0.39 | -2.73 ± 0.23
CGUCAGCAAUAUUACGGUGG | -1.26 ± 0.071 | -0.629 ± 0.096
CGUCAGCAAUAUUACGUAGG | -0.704 ± 0.055 | 0.23 ± 0.086
CGUCAGCAAUAUUACGUCAA | -2.64 ± 0.11 | -1.61 ± 0.1
CGUCAGCAAUAUUACGUCAG | -0.465 ± 0.069 | 0.175 ± 0.083
CGUCAGCAAUAUUACGUCGG | -0.413 ± 0.042 | 0.115 ± 0.06
CGUCAGCAAUAUUACGUCGU | -3 ± 0.09 | -1.99 ± 0.11
CGUCAGCAAUAUUACGUGCG | -4.56 ± 0.31 | -2.21 ± 0.19
CGUCAGCAAUAUUACGUUCC | -2.43 ± 0.16 | -1.18 ± 0.23
CGUCAGCAAUAUUACGUUUU | -3.25 ± 0.098 | -1.55 ± 0.094
CGUGAGCAAUAUUACGAUAU | -2.77 ± 0.14 | -2.71 ± 0.23
CGUGAGCAAUAUUACGAUCG | -3.02 ± 0.27 | 0.475 ± 0.25
CGUGAGCAAUAUUACGAUUU |  | -2.24 ± 0.29
CGUGAGCAAUAUUACGCAAU | -2.52 ± 0.14 | -2.75 ± 0.25
CGUGAGCAAUAUUACGCAUG | -0.06 ± 0.18 | -1.13 ± 0.27

Sequence | self-splicing fitness (ln) (30 °C) | self-splicing fitness (ln) (37 °C)
CGUGAGCAAUAUUACGCUAU | -2.39 ± 0.17 | -2.49 ± 0.23
CGUGAGCAAUAUUACGCUCU | -1.76 ± 0.36 | 
CGUGAGCAAUAUUACGCUUA |  | -2.18 ± 0.35
CGUGAGCAAUAUUACGGAAU |  | -2.84 ± 0.38
CGUGAGCAAUAUUACGGACA | -1.29 ± 0.16 | -0.944 ± 0.19
CGUGAGCAAUAUUACGGAGA | -3.88 ± 0.33 | -1.57 ± 0.25
CGUGAGCAAUAUUACGGCCA | -2.35 ± 0.49 | 
CGUGAGCAAUAUUACGGCUG | -0.246 ± 0.073 | 0.0364 ± 0.094
CGUGAGCAAUAUUACGGCUU | -3.31 ± 0.18 | -3.81 ± 0.33
CGUGAGCAAUAUUACGGGAC |  | -1.88 ± 0.41
CGUGAGCAAUAUUACGGGCC | -1.9 ± 0.32 | 
CGUGAGCAAUAUUACGGUAA |  | -2.41 ± 0.25
CGUGAGCAAUAUUACGGUCU | -2.56 ± 0.17 | -2.16 ± 0.42
CGUGAGCAAUAUUACGUAAA |  | -2.03 ± 0.33
CGUGAGCAAUAUUACGUACG |  | -0.531 ± 0.23
CGUGAGCAAUAUUACGUACU | -1.7 ± 0.12 | -0.396 ± 0.14
CGUGAGCAAUAUUACGUGAG | -0.77 ± 0.072 | -1.61 ± 0.097
CGUGAGCAAUAUUACGUGGC | -3.73 ± 0.37 | -3.16 ± 0.4
CGUGAGCAAUAUUACGUGGU | -3.02 ± 0.17 | -2.42 ± 0.22
CGUGAGCAAUAUUACGUGUU | -3.22 ± 0.3 | -2.86 ± 0.32
CGUGAGCAAUAUUACGUUAG | -2.02 ± 0.081 | -1 ± 0.094
CGUUAGCAAUAUUACGAAUC | -2.95 ± 0.28 | -2.42 ± 0.3
